From paper PMC12355267, “Human Helicase DDX5 is Hijacked by SARS-CoV‑2 Nsp13 Helicase to Enhance RNA Unwinding” (ACS Omega, 2025) come the findings set out here.

Assay [1] has as its target T1, SARS-CoV-2 Nsp13 helicase (SARS-CoV-2, UniProt P0DTD1 5325-5925).
T1 construct: also called Nsp13 helicase of SARS-CoV-2
Nature of the assay: MST. Conditions: both partners purified.

Assay [2] addresses T1, SARS-CoV-2 Nsp13 helicase. Particulars: both partners purified.

B1: RecA1 domain of DDX5 (1–303) (domain or fragment, human, UniProt P17844 1-303, looked up)
chain: MSGYSSDRDRGRDRGFGAPRFGGSRAGPLSGKKFGNPGEKLVKKKWNLDELPKFEKNFYQEHPDLARRTAQEVETYRRSKEITVRGHNCPKPVLNFYEANFPANVMDVIARQNFTEPTAIQAQGWPVALSGLDMVGVAQTGSGKTLSYLLPAIVHINHQPFLERGDGPICLVLAPTRELAQQVQQVAAEYCRACRLKSTCIYGGAPKGPQIRDLERGVEICIATPGRLIDFLECGKTNLRRTTYLVLDEADRMLDMGFEPQIRKIVDQIRPDRQTLMWSATWPKEVRQLAEDFLKDYIHINIG
notes: human DDX5, RecA1 domain with the N-terminal region, residues 1-303; probably as DDX5ΔC (pETM-13, His-tag), surmised; source: E. coli (cloned from the gene optimized for E. coli expression), purified
As to B1, 16.2 µM corresponded to half-maximal inhibition in assay [1] (IC50).

B2: labeled RecA1 domain of DDX5 (domain or fragment, human, UniProt P17844 1-303, looked up)
chain: B1 chain
modifications: fluorescent label (dye and site not stated)
notes: human DDX5, RecA1 domain with the N-terminal region, residues 1-303; also called fluorescent RecA1; source: E. coli (cloned from the gene optimized for E. coli expression), purified, then labeled
Take B2: the affinity in assay [2], expressed as Kd, was 9.1 ± 1.3 µM.

B3: full-length DDX5 (flDDX5) (enzyme, human, UniProt P17844 1-614, looked up)
chain: MSGYSSDRDRGRDRGFGAPRFGGSRAGPLSGKKFGNPGEKLVKKKWNLDELPKFEKNFYQEHPDLARRTAQEVETYRRSKEITVRGHNCPKPVLNFYEANFPANVMDVIARQNFTEPTAIQAQGWPVALSGLDMVGVAQTGSGKTLSYLLPAIVHINHQPFLERGDGPICLVLAPTRELAQQVQQVAAEYCRACRLKSTCIYGGAPKGPQIRDLERGVEICIATPGRLIDFLECGKTNLRRTTYLVLDEADRMLDMGFEPQIRKIVDQIRPDRQTLMWSATWPKEVRQLAEDFLKDYIHINIGALELSANHNILQIVDVCHDVEKDEKLIRLMEEIMSEKENKTIVFVETKRRCDELTRKMRRDGWPAMGIHGDKSQQERDWVLNEFKHGKAPILIATDVASRGLDVEDVKFVINYDYPNSSEDYIHRIGRTARSTKTGTAYTFFTPNNIKQVSDLISVLREANQAINPKLLQLVEDRGSGRSRGRGGMKDDRRDRYSAGKRGGFNTFRDRENYDRGYSSLLKRDFGAKTQNGVYSAANYTNGSFGSNFVSAGIQTSFRTGNPTGTYQNGYDSTQQYGSNVPNMHNGMNQQAYAYPATAAAPMIGYPMPTGYSQ
notes: human DEAD-box helicase DDX5, native full-length gene in pET30a, 614 residues (1-614); also called full-length DDX5 (1–614); unlabeled flDDX5
For the molecule B3, the half-inhibitory concentration (IC50) (commonly the point on the concentration scale where inhibition reaches its midpoint) in assay [1] turned out to be 0.325 µM.
